# Measured values from paper PMC10801496, “A Novel Anti-CD47 Nanobody Tetramer for Cancer Therapy” (Antibodies, 2024).
# Molecular target: T1, human CD47 with His tag (Homo sapiens, UniProt Q08722)
# T1 construct: CD47, human; The alpaca was immunised with an extracellular fragment of CD47; also called recombinant CD47; source: gift from P.M. Chumakov
# Assay: SPR; recombinant CD47 anchored to a CM5 chip, nanobodies as analyte, Biacore T200
# Details: both partners purified
# T1 sequence (Q08722 19-323): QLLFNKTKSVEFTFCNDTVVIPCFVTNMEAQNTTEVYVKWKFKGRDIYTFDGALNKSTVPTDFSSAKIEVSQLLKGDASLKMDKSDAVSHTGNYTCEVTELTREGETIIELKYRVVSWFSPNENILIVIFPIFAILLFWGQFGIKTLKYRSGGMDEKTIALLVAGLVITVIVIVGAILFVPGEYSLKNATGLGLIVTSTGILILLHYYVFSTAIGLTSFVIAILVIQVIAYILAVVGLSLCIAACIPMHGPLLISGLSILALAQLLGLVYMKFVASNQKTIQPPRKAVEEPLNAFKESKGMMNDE
row,Binder,Kd
1,"47VHH1D9 (VHH, alpaca VHH; Cloned into pET32b+; about 17 kDa on SDS-PAGE; source: E. coli BL21DE3, purified (Ni-NTA, gel-filtration)) VHH: RVQAGGSLRLSCKVSGNNFRRVNMGWYRQAPGKQRDLVAWISNDGGTYYDRSLKGRFTISRDNTKNTMFLQMDSLKPEDTAVYYCNSRPSSIFGSWGQGTQVTVSS",400 nM
2,"47VHH2B10 (VHH, alpaca VHH; Cloned into pET32b+; about 17 kDa on SDS-PAGE; source: E. coli BL21DE3, purified (Ni-NTA, gel-filtration)) VHH: QVQLVESGGGLVQPGGSLRLSCEASGFNLGYYGICWFRRAAGKEREGVACSATPDDSTYYADSVKGRFTISKDKAKNMIFLQMNDLKPEDTAVYYCVTDRKPKYGKQWLEFSEYDYWGQGTQVIVSS",~30000 nM
3,"47VHH1C17 (VHH, alpaca VHH; Cloned into pET32b+; about 17 kDa on SDS-PAGE; source: E. coli BL21DE3, purified (Ni-NTA, gel-filtration)) VHH: QVQLVESGGGLVQAGGSLRLSCAASGHTFSSYDMGWFRQAPGKEREFVAHINWSGSTYYADSVKGRFTISGGNAKNAVYLQMNSLKPEDTAVYYCGAKYAISRTWDYWGQGTQVTVSS",2000 nM
4,"47VHH1H4 (VHH, alpaca VHH; Cloned into pET32b+; about 17 kDa on SDS-PAGE; also called native 47VHH1H4; source: E. coli BL21DE3, purified (Ni-NTA, gel-filtration)) VHH: QVQLVESGGGLVQAGGSLRLSCKVSGNNFRRVNMGWYRQAPGKQRDLVAWISNDGGTYYDRSLKGRFTISRDNTKNTMFLQMDSLKPEDTAVYYCNSRPSSIFGSWGQGTQVTVSS",30 nM
5,"47VHH1H4B (VHH, as the VHH of m3 (47VHH1H4); IgA hinge linker; biotin acceptor domain BAD; About 25 kDa on SDS-PAGE; also called biotinylated 47VHH1H4; biotinylated 47VHH1H4 fragment; source: E. coli BL21DE3 carrying BirA, 0.3 mM biotin, purified (Ni-NTA, UNO S1 cation exchange)) VHH: QVQLVESGGGLVQAGGSLRLSCKVSGNNFRRVNMGWYRQAPGKQRDLVAWISNDGGTYYDRSLKGRFTISRDNTKNTMFLQMDSLKPEDTAVYYCNSRPSSIFGSWGQGTQVTVSS",3 nM
6,"47VHH1A12 (VHH, alpaca VHH; Cloned into pET32b+; about 17 kDa on SDS-PAGE; source: E. coli BL21DE3, purified (Ni-NTA, gel-filtration)) VHH: QLQLVESGGGLVQAGGSLRLSCVVSGGTFSALTMGWFRDVPGKEREFVSAISFDTRTTYYSDSVKGRFAISRDNGLNTVYLDMNSLRPEDTAVYVCAADAQIGWVNRRAYDYDYWGQGTQVTVSS",~30000 nM
